Experimental data from paper PMC3316577.

Assays:
[1] = target: CBFβ140-His (residues 1-140 of CBFβ with six histidine residues at the N-terminus) (human) (UniProt Q13951); experiment: SEC; Vif-CBFβ complexes co-expressed and purified by nickel affinity, Superdex 200 10/300 GL, 20 mM Tris-HCl pH 8.0, 150 mM NaCl, 10% glycerol; peak fractions by SDS-PAGE and Coomassie staining
[2] = target: CBFβ140-His (residues 1-140 of CBFβ with six histidine residues at the N-terminus) (human) (UniProt Q13951); experiment: SEC
[3] = target: His-tagged CBFβ187 (mouse CBFβ, residues 1-187) (mouse) (UniProt Q08024); experiment: SEC
UniProt Q08024, sequence (Q08024 whole entry, the tested form may be a part): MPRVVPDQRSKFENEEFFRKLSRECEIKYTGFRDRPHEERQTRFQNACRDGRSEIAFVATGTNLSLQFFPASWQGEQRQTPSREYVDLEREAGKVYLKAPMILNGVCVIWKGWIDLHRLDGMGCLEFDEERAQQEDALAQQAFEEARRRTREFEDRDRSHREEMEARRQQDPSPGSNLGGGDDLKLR

UniProt Q13951, sequence (Q13951 1-140): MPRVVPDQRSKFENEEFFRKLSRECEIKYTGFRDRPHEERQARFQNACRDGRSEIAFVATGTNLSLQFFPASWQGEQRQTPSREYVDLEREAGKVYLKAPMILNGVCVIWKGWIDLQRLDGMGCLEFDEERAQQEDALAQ

Substance | stoichiometry N [1] | stoichiometry N [2] | stoichiometry N [3]
truncated HIV-1 Vif140 (residues 1-140) (from UniProt P12504 1-140) (domain or fragment) | 1 |  | 
Elongin B / Elongin C (residues 17 to 112) (from UniProt Q15370 1-118; Q15369 17-112) (complex) |  | 1 | 1
truncated HIV-1 Vif176 (residues 1-176) (from UniProt P12504 1-176) (domain or fragment) | 1 |  | 
full-length HIV-1 Vif (residues 1-192) (from UniProt P12504) (natural protein) | 1 | 1 | 1
